The supplement of paper PMC11246515
± gives the standard deviation of the averaged measurements.

Test: total protein half-life in vivo (active degradation + dilution); higher = more stable protein
[1] = wild type E. coli NCM3722, growth: C-lim chemostat, doubling time 3 h
[2] = wild type E. coli NCM3722, growth: C-lim chemostat, doubling time 6 h
[3] = wild type E. coli NCM3722, growth: C-lim chemostat, doubling time 12 h
[4] = E. coli NCM3722 delta-smpB, growth: N-lim chemostat, doubling time 6 h
[5] = E. coli NCM3722 delta-clpP delta-lon delta-hslV, growth: N-lim chemostat, doubling time 6 h
[6] = E. coli NCM3722 delta-clpP, growth: N-lim chemostat, doubling time 6 h
[7] = E. coli NCM3722 delta-hslV, growth: N-lim chemostat, doubling time 6 h
[8] = E. coli NCM3722 delta-lon, growth: N-lim chemostat, doubling time 6 h
[9] = wild type E. coli NCM3722, growth: N-lim chemostat, doubling time 6 h
[10] = wild type E. coli NCM3722, growth: N-lim chemostat, doubling time 12 h
[11] = wild type E. coli NCM3722, growth: P-lim chemostat, doubling time 6 h
[12] = wild type E. coli NCM3722, growth: P-lim chemostat, doubling time 12 h

MKIITCYKCVPDEQDIAVNNADGSLDFSKADAKISQYDLNAIEAACQLKQQAAEAQVTALSVGGKALTNAKGRKDVLSRGPDELIVVIDDQFEQALPQQTASALAAAAQKAGFDLILCGDGSSDLYAQQVGLLVGEILNIPAVNGVSKIISLTADTLTVERELEDETETLSIPLPAVVAVSTDINSPQIPSMKAILGAAKKPVQVWSAADIGFNAEAAWSEQQVAAPKQRERQRIVIEGDGEEQIAAFAENLRKVI
total protein half-life in vivo [1]: 2.81 ± 0.21 h
total protein half-life in vivo [2]: 5.04 h
total protein half-life in vivo [3]: 10.2 h

MKIKTILTPVTCALLISFSAHAANADNYKNVINRTGAPQYMKDYDYDDHQRFNPFFDLGAWHGHLLPDGPNTMGGFPGVALLTEEYINFMASNFDRLTVWQDGKKVDFTLEAYSIPGALVQKLTAKDVQVEMTLRFATPRTSLLETKITSNKPLDLVWDGELLEKLEAKEGKPLSDKTIAGEYPDYQRKISATRDGLKVTFGKVRATWDLLTSGESEYQVHKSLPVQTEINGNRFTSKAHINGSTTLYTTYSHLLTAQEVSKEQMQIRDILARPAFYLTASQQRWEEYLKKGLTNPDATPEQTRVAVKAIETLNGNWRSPGGAVKFNTVTPSVTGRWFSGNQTWPWDTWKQAFAMAHFNPDIAKENIRAVFSWQIQPGDSVRPQDVGFVPDLIAWNLSPERGGDGGNWNERNTKPSLAAWSVMEVYNVTQDKTWVAEMYPKLVAYHDWWLRNRDHNGNGVPEYGATRDKAHNTESGEMLFTVKKGDKEETQSGLNNYARVVEKGQYDSLEIPAQVAASWESGRDDAAVFGFIDKEQLDKYVANGGKRSDWTVKFAENRSQDGTLLGYSLLQESVDQASYMYSDNHYLAEMATILGKPEEAKRYRQLAQQLADYINTCMFDPTTQFYYDVRIEDKPLANGCAGKPIVERGKGPEGWSPLFNGAATQANADAVVKVMLDPKEFNTFVPLGTAALTNPAFGADIYWRGRVWVDQFWFGLKGMERYGYRDDALKLADTFFRHAKGLTADGPIQENYNPLTGAQQGAPNFSWSAAHLYMLYNDFFRKQ
total protein half-life in vivo [4]: 6.15 h

MKILIVEDDTLLLQGLILAAQTEGYACDSVTTARMAEQSLEAGHYSLVVLDLGLPDEDGLHFLARIRQKKYTLPVLILTARDTLTDKIAGLDVGADDYLVKPFALEELHARIRALLRRHNNQGESELIVGNLTLNMGRRQVWMGGEELILTPKEYALLSRLMLKAGSPVHREILYNDIYNWDNEPSTNTLEVHIHNLRDKVGKARIRTVRGFGYMLVANEEN
total protein half-life in vivo [5]: 6.35 ± 0.76 h
total protein half-life in vivo [6]: 5.04 ± 0.91 h
total protein half-life in vivo [7]: 4.7 ± 0.14 h
total protein half-life in vivo [8]: 4.71 ± 0.34 h
total protein half-life in vivo [4]: 3.93 ± 0.24 h
total protein half-life in vivo [2]: 5.33 ± 0.18 h
total protein half-life in vivo [3]: 9.36 ± 0.56 h
total protein half-life in vivo [9]: 5.55 ± 1.2 h
total protein half-life in vivo [10]: 7.56 ± 0.27 h
total protein half-life in vivo [11]: 4.89 ± 0.26 h
total protein half-life in vivo [12]: 9.22 ± 0.027 h

MKILRWLFALVMLIATTEAMAAGHSVDVYYGYNGDSRNIATFNLKIMMPSAVYVGEYKSSQWLMTGEILQNVSWSGPPPAPSVKLIGYHQNINKASCPGLPSGWNCGYYTFEVIVSAEIESYFSCPWLVIMNDSEASPGGVTYQGPDSHDTICPSVSVQPYDVSWNENYVSKSKLLTLQSTGGVVEKTLSTYLMKDGKLCDSTQMNETGGYCRWVAQMITFTASGCDKAEVSVTPNRHPITDKQLHDMVVRVDTSSMQPIDSTCRFQYILNEL
total protein half-life in vivo [5]: 4.06 ± 0.19 h
total protein half-life in vivo [6]: 4.43 h
total protein half-life in vivo [8]: 4.34 h
total protein half-life in vivo [4]: 5.02 ± 1.1 h
total protein half-life in vivo [1]: 3.03 ± 0.58 h
total protein half-life in vivo [3]: 6.01 h
total protein half-life in vivo [9]: 4.81 h
total protein half-life in vivo [10]: > 16 h
total protein half-life in vivo [11]: 4.43 h
total protein half-life in vivo [12]: 8.64 ± 0.17 h

MKILVDENMPYARDLFSRLGEVTAVPGRPIPVAQLADADALMVRSVTKVNESLLAGKPIKFVGTATAGTDHVDEAWLKQAGIGFSAAPGCNAIAVVEYVFSSLLMLAERDGFSLYDRTVGIVGVGNVGRRLQARLEALGIKTLLCDPPRADRGDEGDFRSLDELVQRADILTFHTPLFKDGPYKTLHLADEKLIRSLKPGAILINACRGAVVDNTALLTCLNEGQKLSVVLDVWEGEPELNVELLKKVDIGTSHIAGYTLEGKARGTTQVFEAYSKFIGHEQHVALDTLLPAPEFGRITLHGPLDQPTLKRLVHLVYDVRRDDAPLRKVAGIPGEFDKLRKNYLERREWSSLYVICDDASAASLLCKLGFNAVHHPAR
total protein half-life in vivo [5]: 5.83 ± 1.3 h
total protein half-life in vivo [6]: 5.47 ± 1.3 h
total protein half-life in vivo [7]: 5.17 ± 0.28 h
total protein half-life in vivo [8]: 5.42 ± 0.064 h
total protein half-life in vivo [4]: 4.62 ± 0.18 h
total protein half-life in vivo [1]: 3 ± 0.38 h
total protein half-life in vivo [2]: 5.58 ± 0.23 h
total protein half-life in vivo [3]: 12.6 ± 3.2 h
total protein half-life in vivo [9]: 4.72 ± 0.047 h
total protein half-life in vivo [10]: 8.268 ± 0.016 h
total protein half-life in vivo [11]: 5.71 ± 0.38 h
total protein half-life in vivo [12]: 11.1 ± 0.13 h

MKILVTGGAGFIGSAVVRHIINNTQDSVVNVDKLTYAGNRESLADVSDSERYVFEHADICDAPAMARIFAQHQPDAVMHLAAESHVDRSITGPAAFIETNIVGTYVLLEAARNYWSALDSDKKNSFRFHHISTDEVYGDLPHPDEVNNTEELPLFTETTAYAPSSPYSASKASSDHLVRAWKRTYGLPTIVTNCSNNYGPYHFPEKLIPLVILNALEGKALPIYGKGDQIRDWLYVEDHARALYTVVTEGKAGETYNIGGHNEKKNIDVVLTICDLLDEIVPKEKSYREQITYVADRPGHDRRYAIDAEKIGRALGWKPQETFESGIRKTVEWYLSNTKWVDNVKSGAYQSWIEQNYEGRQ
total protein half-life in vivo [5]: 5.58 h
total protein half-life in vivo [7]: 5.31 h
total protein half-life in vivo [9]: 5.85 h
total protein half-life in vivo [11]: 7.66 h

MKINQPAVAGTLESGDVMIRIAPLDTQDIDLQINSSVEKQFGDAIRTTILDVLARYNVRGVQLNVDDKGALDCILRARLEALLARASGIPALPWEDCQ
total protein half-life in vivo [4]: 1.09 h

MKIRSLSRFVLASTMFASFTASAVPGLWQQGYGQGNAEYSVTDASGKMFTINCTGNPDQNGIYQHSVFLILAGDKTVSSHDDSTGITVVMDHKQYAIPSTLGWRNGDNAWFSFIMDIRKARQFDVYVNDQKVGSFNPDVRNAQKVLPTLADCTND
total protein half-life in vivo [1]: 1.45 h

MKISRLGEAPDYRFSLANERTFLAWIRTALGFLAAGVGLDQLAPDFATPVIRELLALLLCLFSGGLAMYGYLRWLRNEKAMRLKEDLPYTNSLLIISLILMVVAVIVMGLVLYAG [P0ADM0]
total protein half-life in vivo [2]: 5.742 ± 0.053 h
total protein half-life in vivo [3]: > 16 h
total protein half-life in vivo [9]: 5.98 h
total protein half-life in vivo [11]: 5.91 h
total protein half-life in vivo [12]: 5 h

MKITVLGCGALGQLWLTALCKQGHEVQGWLRVPQPYCSVNLVETDGSIFNESLTANDPDFLATSDLLLVTLKAWQVSDAVKSLASTLPVTTPILLIHNGMGTIEELQNIQQPLLMGTTTHAARRDGNVIIHVANGITHIGPARQQDGDYSYLADILQTVLPDVAWHNNIRAELWRKLAVNCVINPLTAIWNCPNGELRHHPQEIMQICEEVAAVIEREGHHTSAEDLRDYVMQVIDATAENISSMLQDIRALRHTEIDYINGFLLRRARAHGIAVPENTRLFEMVKRKESEYERIGTGLPRPW [P0A9J4]
total protein half-life in vivo [8]: 3.4 h
total protein half-life in vivo [4]: 3.22 ± 0.64 h
total protein half-life in vivo [3]: 4.51 h
total protein half-life in vivo [9]: 3.03 h
total protein half-life in vivo [11]: 5.73 ± 0.2 h

MKIVEVKHPLVKHKLGLMREQDISTKRFRELASEVGSLLTYEATADLETEKVTIEGWNGPVEIDQIKGKKITVVPILRAGLGMMDGVLENVPSARISVVGMYRNEETLEPVPYFQKLVSNIDERMALIVDPMLATGGSVIATIDLLKKAGCSSIKVLVLVAAPEGIAALEKAHPDVELYTASIDQGLNEHGYIIPGLGDAGDKIFGTK [P0A8F0]
total protein half-life in vivo [5]: 5.6625 ± 0.0038 h
total protein half-life in vivo [6]: 5.17 ± 0.33 h
total protein half-life in vivo [7]: 5.83 ± 0.94 h
total protein half-life in vivo [8]: 5.36 ± 0.61 h
total protein half-life in vivo [4]: 5.3 ± 0.15 h
total protein half-life in vivo [1]: 3.05 ± 0.29 h
total protein half-life in vivo [2]: 5.86 ± 0.36 h
total protein half-life in vivo [3]: 10.9 ± 1.4 h
total protein half-life in vivo [9]: 5.71 ± 0.23 h
total protein half-life in vivo [10]: 12.1 ± 2.8 h
total protein half-life in vivo [11]: 6.55 ± 0.34 h
total protein half-life in vivo [12]: 11.3 ± 0.98 h

MKIVIAPDSFKESLSAEKCCQAIKAGFSTLFPDANYICLPIADGGEGTVDAMVAATGGNIVTLEVCGPMGEKVNAFYGLTGDGKTAVIEMAAASGLMLVAPEKRNPLLASSFGTGELIRHALDNDIRHIILGIGGSATVDGGMGMAQALGVRFLDADGQALAANGGNLARVASIEMDECDPRLANCHIEVACDVDNPLVGARGAAAVFGPQKGATPEMVEELEQGLQNYARVLQQQTEINVCQMAGGGAAGGMGIAAAVFLNADIKPGIEIVLNAVNLAQAVQGAALVITGEGRIDSQTAGGKAPLGVASVAKQFNVPVIGIAGVLGDGVEVVHQYGIDAVFSILPRLAPLAEVLASGETNLFNSARNIACAIKIGQGIKN
total protein half-life in vivo [5]: 4.41 ± 0.66 h
total protein half-life in vivo [6]: 4.58 ± 0.6 h
total protein half-life in vivo [7]: 4.47 ± 0.077 h
total protein half-life in vivo [8]: 4.62 ± 0.21 h
total protein half-life in vivo [4]: 4.3 ± 0.45 h
total protein half-life in vivo [1]: 3.05 ± 0.13 h
total protein half-life in vivo [2]: 4.82 ± 0.53 h
total protein half-life in vivo [3]: 10.4 ± 1.2 h
total protein half-life in vivo [9]: 5.7 ± 1.2 h
total protein half-life in vivo [10]: 8.201 ± 0.034 h
total protein half-life in vivo [11]: 5.05 ± 0.15 h
total protein half-life in vivo [12]: 9.23 ± 0.27 h

MKKAIAYMRFSSPGQMSGDSLNRQRRLIAEWLKVNSDYYLDTITYEDLGLSAFKGKHAQSGAFSEFLDAIEHGYILPGTTLLVESLDRLSREKVGEAIERLKLILNHGIDVITLCDNTVYNIDSLNEPYSLIKAILIAQRANEESEIKSSRVKLSWKKKRQDALESGTIMTASCPRWLSLDDKRTAFVPDPDRVKTIELIFKLRMERRSLNAIAKYLNDHAVKNFSGKESAWGPSVIEKLLANKALIGICVPSYRARGKGISEIAGYYPRVISDDLFYAVQEIRLAPFGISNSSKNPMLINLLRTVMKCEACGNTMIVHAVSGSLHGYYVCPMRRLHRCDRPSIKRDLVDYNIINELLFNCSKIQPVENKKDANETLELKIIELQMKINNLIVALSVAPEVTAIAEKIRLLDKELRRASVSLKTLKSKGVNSFSDFYAIDLTSKNGRELCRTLAYKTFEKIIINTDNKTCDIYFMNGIVFKHYPLMKVISAQQAISALKYMVDGEIYF
total protein half-life in vivo [5]: > 8 h
total protein half-life in vivo [6]: 1.49 h
total protein half-life in vivo [1]: 1.41 h
total protein half-life in vivo [3]: 1.97 h
total protein half-life in vivo [10]: 14 h
